Measured values from patent US20250262210A1 (TRUSTEES OF COLUMBIA UNIVERSITY IN THE CITY OF NEW YORK, published 2025).

Tests used:
TTI1 = TTI1 (human, UniProt O43156 1-1089); test: IP/MS, LZTR1 wild type-FLAG, U87
How it was run: (§1)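 Read-out: spectral counts from LC-MS/MS (Orbitrap Fusion) after MaxQuant identification. Variable modifications were Met oxidation, protein N-terminal acetylation and N/Q deamidation.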

SLC4A2 = biological target: T1, SLC4A2 (human, UniProt P04920 1-1241, limits assumed); test: IP/MS, LZTR1 wild type-FLAG, U87
T1 sequence (looked up): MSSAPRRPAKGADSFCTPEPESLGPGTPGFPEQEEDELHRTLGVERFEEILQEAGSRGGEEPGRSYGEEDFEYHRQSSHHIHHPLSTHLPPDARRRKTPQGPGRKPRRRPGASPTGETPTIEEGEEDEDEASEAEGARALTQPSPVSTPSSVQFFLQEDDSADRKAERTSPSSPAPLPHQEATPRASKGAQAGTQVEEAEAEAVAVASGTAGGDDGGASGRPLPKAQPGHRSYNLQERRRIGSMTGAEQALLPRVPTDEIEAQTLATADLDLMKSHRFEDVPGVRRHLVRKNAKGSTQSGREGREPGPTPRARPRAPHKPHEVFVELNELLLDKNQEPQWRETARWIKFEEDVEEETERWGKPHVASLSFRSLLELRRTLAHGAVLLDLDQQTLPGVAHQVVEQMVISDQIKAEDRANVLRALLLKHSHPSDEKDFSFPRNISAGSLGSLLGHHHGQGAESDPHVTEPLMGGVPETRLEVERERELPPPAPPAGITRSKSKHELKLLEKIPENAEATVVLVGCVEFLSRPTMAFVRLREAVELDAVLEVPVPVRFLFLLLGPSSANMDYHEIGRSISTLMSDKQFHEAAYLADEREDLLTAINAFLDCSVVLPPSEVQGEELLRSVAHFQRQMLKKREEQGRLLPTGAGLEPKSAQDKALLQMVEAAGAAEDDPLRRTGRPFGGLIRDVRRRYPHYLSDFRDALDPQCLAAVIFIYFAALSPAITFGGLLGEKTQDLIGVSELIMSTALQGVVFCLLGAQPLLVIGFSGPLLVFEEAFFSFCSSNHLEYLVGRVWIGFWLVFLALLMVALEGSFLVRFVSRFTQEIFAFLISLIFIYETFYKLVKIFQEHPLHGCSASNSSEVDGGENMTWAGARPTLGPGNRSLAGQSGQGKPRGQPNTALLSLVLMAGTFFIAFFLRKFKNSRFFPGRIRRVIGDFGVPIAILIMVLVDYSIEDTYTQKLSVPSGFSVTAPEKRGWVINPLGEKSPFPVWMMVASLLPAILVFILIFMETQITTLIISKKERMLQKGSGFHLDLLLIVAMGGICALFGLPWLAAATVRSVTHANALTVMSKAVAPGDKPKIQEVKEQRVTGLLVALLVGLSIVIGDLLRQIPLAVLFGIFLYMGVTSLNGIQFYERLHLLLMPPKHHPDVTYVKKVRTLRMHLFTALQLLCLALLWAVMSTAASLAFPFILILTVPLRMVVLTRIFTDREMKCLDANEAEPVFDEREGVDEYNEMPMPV
How it was run: as §1

Chain of TTI1 (O43156 whole entry, the tested form may be a part): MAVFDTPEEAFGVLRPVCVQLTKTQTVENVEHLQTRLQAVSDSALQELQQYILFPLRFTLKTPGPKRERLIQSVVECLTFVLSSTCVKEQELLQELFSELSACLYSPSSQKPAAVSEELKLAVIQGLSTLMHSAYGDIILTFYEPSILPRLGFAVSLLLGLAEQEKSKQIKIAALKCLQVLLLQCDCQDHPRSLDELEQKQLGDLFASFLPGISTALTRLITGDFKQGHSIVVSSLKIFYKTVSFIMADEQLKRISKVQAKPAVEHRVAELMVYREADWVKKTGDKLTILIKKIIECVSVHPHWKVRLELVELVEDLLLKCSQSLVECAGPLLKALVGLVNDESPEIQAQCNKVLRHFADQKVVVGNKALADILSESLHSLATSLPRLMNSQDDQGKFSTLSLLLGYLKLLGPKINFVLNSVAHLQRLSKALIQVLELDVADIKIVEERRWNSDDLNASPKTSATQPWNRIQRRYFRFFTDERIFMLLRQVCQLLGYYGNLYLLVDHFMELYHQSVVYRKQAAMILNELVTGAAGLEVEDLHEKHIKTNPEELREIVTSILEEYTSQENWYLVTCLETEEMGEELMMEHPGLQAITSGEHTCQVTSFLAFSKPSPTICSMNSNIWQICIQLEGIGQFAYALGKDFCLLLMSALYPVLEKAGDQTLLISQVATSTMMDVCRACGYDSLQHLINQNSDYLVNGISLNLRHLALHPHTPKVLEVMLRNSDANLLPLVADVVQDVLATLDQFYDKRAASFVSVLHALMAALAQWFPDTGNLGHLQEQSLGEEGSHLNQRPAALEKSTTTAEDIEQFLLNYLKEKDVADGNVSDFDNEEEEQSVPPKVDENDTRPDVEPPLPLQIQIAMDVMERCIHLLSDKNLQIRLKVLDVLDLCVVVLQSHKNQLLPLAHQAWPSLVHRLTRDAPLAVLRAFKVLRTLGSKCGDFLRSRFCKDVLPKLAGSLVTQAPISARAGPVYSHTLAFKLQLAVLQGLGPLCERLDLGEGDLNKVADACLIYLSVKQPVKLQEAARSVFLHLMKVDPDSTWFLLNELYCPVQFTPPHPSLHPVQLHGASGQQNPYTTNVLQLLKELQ

B1: LZTR1-FLAG (other, human, UniProt Q8N653 1-840, looked up)
chain: MAGPGSTGGQIGAAALAGGARSKVAPSVDFDHSCSDSVEYLTLNFGPFETVHRWRRLPPCDEFVGARRSKHTVVAYKDAIYVFGGDNGKTMLNDLLRFDVKDCSWCRAFTTGTPPAPRYHHSAVVYGSSMFVFGGYTGDIYSNSNLKNKNDLFEYKFATGQWTEWKIEGRLPVARSAHGATVYSDKLWIFAGYDGNARLNDMWTIGLQDRELTCWEEVAQSGEIPPSCCNFPVAVCRDKMFVFSGQSGAKITNNLFQFEFKDKTWTRIPTEHLLRGSPPPPQRRYGHTMVAFDRHLYVFGGAADNTLPNELHCYDVDFQTWEVVQPSSDSEVGGAEVPERACASEEVPTLTYEERVGFKKSRDVFGLDFGTTSAKQPTQPASELPSGRLFHAAAVISDAMYIFGGTVDNNIRSGEMYRFQFSCYPKCTLHEDYGRLWESRQFCDVEFVLGEKEECVQGHVAIVTARSRWLRRKITQARERLAQKLEQEAAPVPREAPGVAAGGARPPLLHVAIREAEARPFEVLMQFLYTDKIKYPRKGHVEDVLLIMDVYKLALSFQLCRLEQLCRQYIEASVDLQNVLVVCESAARLQLSQLKEHCLNFVVKESHFNQVIMMKEFERLSSPLIVEIVRRKQQPPPRTPLDQPVDIGTSLIQDMKAYLEGAGAEFCDITLLLDGHPRPAHKAILAARSSYFEAMFRSFMPEDGQVNISIGEMVPSRQAFESMLRYIYYGEVNMPPEDSLYLFAAPYYYGFYNNRLQAYCKQNLEMNVTVQNVLQILEAADKTQALDMKRHCLHIIVHQFTKVSKLPTLRSLSQQLLLDIIDSLASHISDKQCAELGADI
notes: Expressed in HEK 293T, HeLa or U87 cells; used as cell lysate; also called LZTR1 wild type-FLAG; LZTR1 WT; not shown: FLAG tag at the C-terminus
binding result (TTI1): binds
binding result (SLC4A2): binds
